Results on ten sequences are retold here after the DeepSol protein solubility set.

The nature of this data set: soluble on expression in E. coli; label from the status in PepcDB or PDB records.
Turning to “MMRKVALFGFSLLLLAGCSSSDSSLPLFSSLPKGVTLVEEVKAEPGKVMIPYSKYRLDNGLTVILSPDDSDPLVHVDVTYHVGSAREEIGKSGFAHFFEHMMFQGSKHVGDQQHFRLITEAGGSLNGTTNRDRTNYFETVPANQLEKMLWLEADRMGFLLDAVSQRKFEIQRDTVKNERAQNYDNRPYGLMWEKMGEALYPEGHPYSWQTIGYVSDLDRVDVNDLKAFFLRWYGPNNAVLTIGGDLDVKQTLAWVQKYFGSIPKGPDVVDAPKQPARLSEDRFITLEDRVQQPMLLIGWPTQYWGAEDQVALDALASALGSGNNSLLYQELVKTQKAVDAGAFQDCAELACTFYVYAMAPSGAKGKLAPLYQETLQVLEKFKQQGVSASRLEQIIGSEEASAVFALESVKGKVSQLAANQTFFDQPDRIESQLEKIRAVTPESVKQVFTRYLDGQPKVTLSVVAKGKTDFAVRPATFITPERQLPEYQKIGDEQLAYREVKDSFDRSQMPQVAQAVQPRLPKLYDVYFDNGVQLLGTQTRETPTVLIEIQLPAGERQVAMGKEGLANLTASLLQEGSQNRSAEAIQAQLDKLGSSIQVVAGAYSTSIVVSSLKKNLPETLQISQEMLLKPAFKQSDFARLQQQMLQGVVYQHQQPSWLASQATRQVLWGESLFARSGDGTQASISALTLKDVKQFYRQHYTPHGAQIAVVGDISAREIRQQLQFIADWKGEAAPLINPQVVPTLTKQKIYLVDKPGAPQSIIRMVRKGLPFDATGELYLTQLANFNLAGNFNSRINQNLREDKGYTYGAGSYFASNREIGAIVFNAPVRADVTVEAIQEMIKEMHHFSQAGMSEEEMKFLRLAVGQQDALMYETPAQKAQLVSSILTYSLDRDYLQQRNEIVKSVDRSTLNELAAKWFNPEDYQIIVVGDAKRLKPQLEKLGIPLEELEIIR”, the “soluble on expression in E. coli” value is “not soluble”. The value for “GLIVDTRDVEERVHVMRKTKLAPTVAHGVFNPEFGPAALSNKDPRLNEGVVLDEVIFSKHKGDTKMSAEDKALFRRCAADYASRLHSVLGTANAPLSIYEAIKGVDGLDAMEPDTAPGLPWALQGKRRGALIDFENGTVGPEVEAALKLMEKREYKFACQTFLKDEIRPMEKVRAGKTRIVDVLPVEHILYTRMMIGRFCAQMHSNNGPQIGSAVGCNPDVDWQRFGTHFAQYRNVWDVDYSAFDANHCSDAMNIMFEEVFRTEFGFHPNAEWILKTLVNTEHAYENKRITVEGGMPSGCSATSIINTILNNIYVLYALRRHYEGVELDTYTMISYGDDIVVASDYDLDFEALKPHFKSLGQTITPADKSDKGFVLGHSITDVTFLKRHFHMDYGTGFYKPVMASKTLEAILSFARRGTIQEKLISVAGLAVHSGPDEYRRLFEPFQGLFEIPSYRSLYLRWVNAVCGDAAALE” was “soluble”; that for “MQVDINVNVVEKPTGAIMFGAGYSDREGIILNGSIAQNNILGTGNFLSLQVNTGSVNKVISASFNNPYYTINGVSLGLEAFKRDINTRSLSSVGMFNTDTTGANIRFGIPVAENDIVSLGLGYEHTKIDLRDDSPQRFKDFVDQFGKTSNNLPITLSWARDRRNSAIWTTSGMTQRLFGEFGLPFGDLNYYKVSYEQRWFFPVTKMFTLMLNGEVGVGDGYSDKPLPFFKNFFAGGFNSVRGYNINTLGPRDSDDRVLGGSKRIVGNIEVLFPVPFMKEDKSVRLSAFADGGTIVNSFSGLGFDDFRYSAGLAATWISPMGPLKFSVAQPLNNQSGDKLQRFQFQFGQTFLEHHHHHH” was “not soluble”.

Take “MFPWIVIHEGNLFDTQKPLKCAILSEFQSMVSESDGPSSSKTGGISSSMTHPLDMLGDTYGIFDLMMDTSSIKPILTEILCSSDHWRRNGRHPVVLSTFPFSAIAREINASCSEALFYEIANVERMIVGDSRHAMNLGDQLAFEIFSTVMMISDLDIFLLGASNLYLSDRRGFNRDLTDVFWSSFISSLLMRNDRNRLFILIKGGLKYVSDLLSEYIVARISMELSDQTIRIRLIYL”: the “soluble on expression in E. coli” value is “soluble”. The value for “MGSDKIHHHHHHMNIDKLDYHSLIIFESISRHLNAGLVANELGMSISSVSRHLGILRDIFKDVLFIRRAQGFVLSDKAIQLLPYIKQLLHDYQVIKHNHIHFNPLTARGHFKIYAYNEFTYVINKVIHQYILPQAPNLTFEVRTLSSDCSRAIEHGEIDFAVVYERFKDHKIICEMFSPTEELFLIAKEGHAVFEDEFTLANLCQYDYFALDNYNDLPMPLLEQLGKTEGKAVNVLGATDNIAALSRHILDGRAISMSCNVFTREFYSLIKGIRTATLPSALTERLLKQITVGRTVGNYLIYSEINQSPTHHWLKQQLFNGIRDEWYLAMGR” was “not soluble”; that for “MASVTLKNVCKAYGDVLISKNVDLEIQEGEFVVFVGPSGCGKSTLLRCIAGLEDITSGDLYIGEQRMNDVEPSKRGVGMVFQSYALYPHLNLYDNMSFGLKLSKADKSEIKKRVDHAAEILQLSHLLDRQPKALSGGQRQRVAIGRTLVSQPNVFLLDEPLSNLDAALRVQMRSEITKLQRKLGCTMIYVTHDQVEAMTMADKIVVLDAGFVSQVGKPLELYHYPQNRFVAGFIGSPKMNFMSVFIEGVEKDRVQVQLSNGTTFWIPVDGTTVTRGERMSLGIRPEHLVEAEHGDAKIEGKVMIVEKLGNETQVYMNLKGSDSDVIYRQPDTLDVETGDTLTIGIPAHRCHLFHSDGRACRRLHKEKGVDLPA” was “not soluble”.

On to “MGSDKIHHHHHHMESSTNPWWVPEDFLAKLQKRVNPEKLAKYGLNDIRQAYFGIYLGIRLDDGSRAPQFLPYKPGFANHIFFLGRSGYGKTSIMRALAEGIYDYFYLNGRKALIIIIEAKYDKTKVKKLMTFREYIIQNFGYDYLLENYPWLENYLQEYSQKRPLLGKIGDFAFGWPNVEGIMTKVDSHHNQFQRHRLQPMIYPSTRIVFRPTRDLSLISRDNGMNVQVVEGKISYERLEVEDLTKFTYVNTQTNYMRILDIYWGQKKIRDPDRFLKEVIRNEYPPRSGETIEDILRSRDRTIANLRTLMNKLKSDRLFTKDPKEEFVKKLTPDRINVIDFSANSRLSDEEEAEIFNILVNYVVNEFALKKDIPVFIIVDEVQNIAKHRLGMAAINKIYREGRSLEISLISGTQYLSGLSKDLVRGATHIGIVGRLASERDAELLEEILDERFDTGEKPRSLQELFRIRKARRGKGKFSIDCEYTFTIEYRVPKTL”, for which the “soluble on expression in E. coli” value is “not soluble”. Take “MTAPPPPLVELPPGSMVERWSITKKLGEGGCGAVYLCTDATGKYALKVEGISEAMQVLKMEVLVLGELTKRGSRHFCKIEDKGRYGSFNYVVMTLVGKSLQDLRKGTAQQCLSLACSLSVGIQSLEALEDLHNIGYLHRDVKPGNYTIGRAELNELRKVYILDFGMARKFTDNNGVIRKPRAAAGFRGTVRYAPIACHKNQELGRKDDVEVWLYMQVELTVGRVPWKEITDMNAVGQAKQAIRNTPEKMFVFPCPANELKEIMKMVDSWDYFADPNYADCYRLMKQTLANCGKPEYPYDWEPGMPLNYMVK”: the “soluble on expression in E. coli” value is listed as “not soluble”.

In the case of “MPQVAKTYESLAREAADNNLDYEEYLLCVLEQEVHQRENNRIQRGIRQAGFPVIKTIESFDFLAIPSLNKPRVLKLMQGEYIRRRENVILIGNSGVGKTHIATALGYEACRQGMKVKFYTAAGLINELLAAQQEYRLNKLEKQWLAPHLVILDELGYVPFSKIGAELLFQFCSSRYERGSLIITTNLEFPRWTEVLGDEQMTAALLDRLTHNAHILNINGESYRFKQALSKQANND”, the “soluble on expression in E. coli” value is listed as “soluble”. Consider “MHPIETPDKTFHDGDGVSELGTILPAWWLNQVQSELLAVLTAAGIQPDKSQPNQLLAALNRLAVVITGDQTVNGQKTFTAQTQFQSGIHLSANQTNWNGGHKAYIGADADNAHIVFGDDTLRLHGANNRISYNNHDIFHKANKPRFAEDIQGKPNTLSGYGIGNFKVETFRGDLNTLKTDGIYSLPTAVGSSNLPVENTACHIQVIAGTKHGWCRQLGYPAYTSDVYERHQTSSANDNWSAWKKLNSDGIPVGAIVSFPKAVQNPAGYLKANGTTFAQNTFPDLYRALGNSNRLPDLSRTDIGITAWFPSDQIPTGWLAFDDIRTRVTETAYPELYRLLTGKYGSIQNVPQAEDRFIRNAGNSLAVGTKQEDEIKRHVHKVFSHWTNHTDAAALGYEDRNERQRSALVSTWTDENLNDNGFLTPRSDSKMATGGDENRPKALVLKLCIKAADTLGEAVFWIKSHGETINAGALDAGTLAQGLQDKADRDHTHTAAQIQGLDEKISTAVAAQFTRQTIGGVDIVRFPDGTMIQTGSYRFTRSGGPIENEVVFPVAFADGNVKCFVSERHSERVTGDRRQHNWLFIRAKNHAAAIITNWYEGSCDWMAIGKAASGNAASSPIGPEIPETNEEPQRESGRTSTGPRNRRRRDGLLEALQD”, for which the “soluble on expression in E. coli” value is “not soluble”.
